Measured values taken from patent US8268575B2, “NAD biosynthesis systems” (Washington University, priority 2004, dated 2012).

Substrate: NC(=O)c1cccnc1
Assay: purified protein, by the assay type
Details: other: substrate of Nampt, 37° C., pH 7.5

B1: purified recombinant mouse Nampt (Mus musculus) (protein)
chain: MNAAAEAEFNILLATDSYKVTHYKQYPPNTSKVYSYFECREKKTENSKVRKVKYEETVFYGLQYILNKYLKGKVVTKEKIQEAKEVYREHFQDDVFNERGWNYILEKYDGHLPIEVKAVPEGSVIPRGNVLFTVENTDPECYWLTNWIETILVQSWYPITVATNSREQKKILAKYLLETSGNLDGLEYKLHDFGYRGVSSQETAGIGASAHLVNFKGTDTVAGIALIKKYYGTKDPVPGYSVPAAEHSTITAWGKDHEKDAFEHIVTQFSSVPVSVVSDSYDIYNACEKIWGEDLRHLIVSRSTEAPLIIRPDSGNPLDTVLKVLDILGKKFPVTENSKGYKLLPPYLRVIQGDGVDINTLQEIVEGMKQKKWSIENVSFGSGGALLQKLTRDLLNCSFKCSYVVTNGLGVNVFKDPVADPNKRSKKGRLSLHRTPAGNFVTLEEGKGDLEEYGHDLLHTVFKNGKVTKSYSFDEVRKNAQLNIEQDVAPH
Km: 0.92 µM
